Our source for the stoichiometry N values is paper PMC4703834.

The experiment has as its target Δ4-DgkA (thermostable mutant of Escherichia coli diacylglycerol kinase) (Escherichia coli) (UniProt P0ABN1). Description: crystal structure; in meso (lipid cubic phase) crystals of Δ4-DgkA in 9.9 MAG at 4 °C, soaked with zinc-ACP (ternary complex, 2.7 Å) or without nucleotide; synchrotron data at 100 K.

For orientation: stoichiometry N means the number of molecules, sites or subunits per partner or assembly. Take “Δ4-DgkA (thermostable mutant of Escherichia coli diacylglycerol kinase) (from UniProt P0ABN1 2-122) (enzyme)”: the stoichiometry N was 3.
